Data published in US20060286584A1 (University of Texas, published 2006).
One block for each molecule: values may come before it.

Experiments:
[1] = system: T1, GST-Yki fusion protein (GST with full length Yki)
T1 sequence: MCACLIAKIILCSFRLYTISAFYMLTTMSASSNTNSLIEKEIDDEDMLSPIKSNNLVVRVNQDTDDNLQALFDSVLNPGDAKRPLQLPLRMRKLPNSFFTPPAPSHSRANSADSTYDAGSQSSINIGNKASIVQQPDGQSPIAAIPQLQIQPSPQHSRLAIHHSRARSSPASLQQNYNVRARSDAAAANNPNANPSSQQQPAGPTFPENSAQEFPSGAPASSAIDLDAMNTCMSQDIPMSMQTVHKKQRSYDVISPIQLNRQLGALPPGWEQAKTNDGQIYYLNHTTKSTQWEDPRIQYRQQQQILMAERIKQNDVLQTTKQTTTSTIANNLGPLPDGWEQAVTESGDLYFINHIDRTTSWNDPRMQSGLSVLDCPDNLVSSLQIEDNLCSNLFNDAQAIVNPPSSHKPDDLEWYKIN

[2] = biological target: T2, V5-tagged Wts (Warts) (Drosophila, UniProt Q9VA38 1-1; Q9VA38 2-1105); experiment: co-immunoprecipitation from S2 cells (anti-HA IP, anti-V5 blot)
T2 construct: Expressed in S2 cells; in the kinase assay it was immunoprecipitated with anti-V5, alone or after co-expression with Hpo-Sav; also called Lats
T2 sequence: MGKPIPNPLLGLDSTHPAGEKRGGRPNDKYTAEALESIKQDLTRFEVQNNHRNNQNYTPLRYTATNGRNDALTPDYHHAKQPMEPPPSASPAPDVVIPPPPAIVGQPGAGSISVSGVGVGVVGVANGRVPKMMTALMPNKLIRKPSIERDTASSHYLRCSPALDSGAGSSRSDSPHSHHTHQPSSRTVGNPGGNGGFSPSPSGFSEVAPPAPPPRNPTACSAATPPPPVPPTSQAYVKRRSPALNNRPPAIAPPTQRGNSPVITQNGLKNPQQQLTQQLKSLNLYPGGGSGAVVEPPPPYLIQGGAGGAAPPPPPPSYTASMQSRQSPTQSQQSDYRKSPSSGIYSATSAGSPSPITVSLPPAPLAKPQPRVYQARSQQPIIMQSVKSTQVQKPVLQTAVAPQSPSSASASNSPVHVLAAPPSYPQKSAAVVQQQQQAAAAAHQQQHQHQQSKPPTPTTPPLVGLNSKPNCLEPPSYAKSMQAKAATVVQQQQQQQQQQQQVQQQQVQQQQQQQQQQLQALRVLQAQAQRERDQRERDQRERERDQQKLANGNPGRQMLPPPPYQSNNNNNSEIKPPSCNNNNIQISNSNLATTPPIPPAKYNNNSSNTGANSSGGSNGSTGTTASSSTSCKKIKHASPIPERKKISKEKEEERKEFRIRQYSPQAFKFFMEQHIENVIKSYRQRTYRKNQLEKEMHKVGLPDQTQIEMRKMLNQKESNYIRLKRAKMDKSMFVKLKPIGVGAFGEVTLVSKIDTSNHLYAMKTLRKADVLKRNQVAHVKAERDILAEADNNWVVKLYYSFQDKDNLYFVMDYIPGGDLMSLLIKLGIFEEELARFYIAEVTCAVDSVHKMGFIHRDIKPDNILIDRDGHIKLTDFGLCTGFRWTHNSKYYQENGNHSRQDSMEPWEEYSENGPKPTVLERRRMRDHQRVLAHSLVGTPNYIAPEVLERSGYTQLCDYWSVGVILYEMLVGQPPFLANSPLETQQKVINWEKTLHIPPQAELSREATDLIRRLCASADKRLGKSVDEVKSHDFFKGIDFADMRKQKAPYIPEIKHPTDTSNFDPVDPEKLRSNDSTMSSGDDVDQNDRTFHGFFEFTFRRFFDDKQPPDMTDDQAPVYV
From the text: HA-tagged wildtype Yki (Yki, lane 1), a mutant Yki carrying point mutations in the WW domains (Yki^{W292A P295A W361A P364A}, abbreviated as Yki^WM in lane 2), or a truncated Yki containing only the N-terminal half of the protein (Yki^N, lane 3) were co-expressed with V5-tagged Wts. α-HA immunoprecipitates were probed with and α-V5 antibody to detect physical interaction between the Yki variants and Wts. Note that wildtype Yki, but not Yki^WM or Yki^N, could immunoprecipitate Wts.
HA-tagged Yki was constructed by adding a C-terminal HA epitope ([…]) to Yki using the pAc5.1/V5-HisB vector (Invitrogen). N-terminal V5-tagged Wts was constructed in the same vector by adding a V5 tag ([…]) between the first and second codon of Wts. Point mutations of Yki and Wts were introduced using the QuikChange site-directed mutagenesis kit (Stratagene). Myc-tagged Hpo and Flag-tagged Sav constructs have been described previously (Wu et al., 2003). The pGEX4T-1 vector was used to express a fusion of GST with full length Yki the GST-Yki preparation contained two Yki-related bands, with the upper band migrating at the expected molecular weight. It also contained a contaminating band (FIG. 6C). The Yki-related bands, but not the contaminating band, were diminished by thrombin, which cleaves the GST-Yki fusion at the junction of GST and Yki (data not shown). […]

[3] = biological target: GST-Tsc1 fusion (control substrate) [GST: P08515]
[4] = biological target: T3, GST-Yki fusion protein (GST with full length Yki)
T3 chain: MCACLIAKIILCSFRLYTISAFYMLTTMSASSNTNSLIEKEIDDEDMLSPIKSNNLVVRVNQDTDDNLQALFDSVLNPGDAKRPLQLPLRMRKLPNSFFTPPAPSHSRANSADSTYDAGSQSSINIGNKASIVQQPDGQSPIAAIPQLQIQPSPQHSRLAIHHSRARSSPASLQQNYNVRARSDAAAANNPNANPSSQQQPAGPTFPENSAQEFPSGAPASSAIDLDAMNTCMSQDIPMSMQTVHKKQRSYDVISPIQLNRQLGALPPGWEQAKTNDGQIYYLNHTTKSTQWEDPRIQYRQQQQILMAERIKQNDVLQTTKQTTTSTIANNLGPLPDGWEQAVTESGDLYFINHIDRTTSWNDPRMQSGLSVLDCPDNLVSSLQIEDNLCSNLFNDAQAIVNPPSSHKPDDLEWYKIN

Chain of GST-Tsc1 fusion (control substrate) [GST: P08515] (P08515 whole entry, looked up, the tested form may be a part): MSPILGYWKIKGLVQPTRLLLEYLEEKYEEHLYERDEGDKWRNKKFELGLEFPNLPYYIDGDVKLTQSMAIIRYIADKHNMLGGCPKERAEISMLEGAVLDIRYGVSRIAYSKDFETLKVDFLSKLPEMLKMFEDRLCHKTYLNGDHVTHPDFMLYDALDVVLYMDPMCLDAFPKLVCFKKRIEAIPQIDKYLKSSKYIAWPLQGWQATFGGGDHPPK

Molecule: V5-tagged kinase-dead Wts^K743R
in vitro kinase activity (32P), kinase-dead Wts co-expressed with Hpo-Sav and immunoprecipitated [1]: a kinase dead mutation of Wts, WtsK^743R, completely abolished the in vitro kinase activity of Wts towards Yki

binding result [2]: no binding
B1: HA-tagged Yki^W292A P295A W361A P364A (other)
chain: MCACLIAKIILCSFRLYTISAFYMLTTMSASSNTNSLIEKEIDDEDMLSPIKSNNLVVRVNQDTDDNLQALFDSVLNPGDAKRPLQLPLRMRKLPNSFFTPPAPSHSRANSADSTYDAGSQSSINIGNKASIVQQPDGQSPIAAIPQLQIQPSPQHSRLAIHHSRARSSPASLQQNYNVRARSDAAAANNPNANPSSQQQPAGPTFPENSAQEFPSGAPASSAIDLDAMNTCMSQDIPMSMQTVHKKQRSYDVISPIQLNRQLGALPPGWEQAKTNDGQIYYLNHTTKSTQAEDARIQYRQQQQILMAERIKQNDVLQTTKQTTTSTIANNLGPLPDGWEQAVTESGDLYFINHIDRTTSANDARMQSGLSVLDCPDNLVSSLQIEDNLCSNLFNDAQAIVNPPSSHKPDDLEWYKINYPYDVPDYA
notes: Expressed in S2 cells; also called Yki^WM; mutant Yki carrying point mutations in the WW domains

B2: V5-tagged Wts (Warts) (protein)
chain: MGKPIPNPLLGLDSTHPAGEKRGGRPNDKYTAEALESIKQDLTRFEVQNNHRNNQNYTPLRYTATNGRNDALTPDYHHAKQPMEPPPSASPAPDVVIPPPPAIVGQPGAGSISVSGVGVGVVGVANGRVPKMMTALMPNKLIRKPSIERDTASSHYLRCSPALDSGAGSSRSDSPHSHHTHQPSSRTVGNPGGNGGFSPSPSGFSEVAPPAPPPRNPTACSAATPPPPVPPTSQAYVKRRSPALNNRPPAIAPPTQRGNSPVITQNGLKNPQQQLTQQLKSLNLYPGGGSGAVVEPPPPYLIQGGAGGAAPPPPPPSYTASMQSRQSPTQSQQSDYRKSPSSGIYSATSAGSPSPITVSLPPAPLAKPQPRVYQARSQQPIIMQSVKSTQVQKPVLQTAVAPQSPSSASASNSPVHVLAAPPSYPQKSAAVVQQQQQAAAAAHQQQHQHQQSKPPTPTTPPLVGLNSKPNCLEPPSYAKSMQAKAATVVQQQQQQQQQQQQVQQQQVQQQQQQQQQQLQALRVLQAQAQRERDQRERDQRERERDQQKLANGNPGRQMLPPPPYQSNNNNNSEIKPPSCNNNNIQISNSNLATTPPIPPAKYNNNSSNTGANSSGGSNGSTGTTASSSTSCKKIKHASPIPERKKISKEKEEERKEFRIRQYSPQAFKFFMEQHIENVIKSYRQRTYRKNQLEKEMHKVGLPDQTQIEMRKMLNQKESNYIRLKRAKMDKSMFVKLKPIGVGAFGEVTLVSKIDTSNHLYAMKTLRKADVLKRNQVAHVKAERDILAEADNNWVVKLYYSFQDKDNLYFVMDYIPGGDLMSLLIKLGIFEEELARFYIAEVTCAVDSVHKMGFIHRDIKPDNILIDRDGHIKLTDFGLCTGFRWTHNSKYYQENGNHSRQDSMEPWEEYSENGPKPTVLERRRMRDHQRVLAHSLVGTPNYIAPEVLERSGYTQLCDYWSVGVILYEMLVGQPPFLANSPLETQQKVINWEKTLHIPPQAELSREATDLIRRLCASADKRLGKSVDEVKSHDFFKGIDFADMRKQKAPYIPEIKHPTDTSNFDPVDPEKLRSNDSTMSSGDDVDQNDRTFHGFFEFTFRRFFDDKQPPDMTDDQAPVYV
in vitro kinase activity (32P), Wts co-expressed with Hpo-Sav and immunoprecipitated [3]: Wts displayed specific kinase activity towards Yki (FIG. 6C, lane 2) but not a control substrate (FIG. 6C, lane 4)
in vitro kinase activity (32P), Wts co-expressed with Hpo-Sav and immunoprecipitated [4]: When co-expressed with Hpo-Sav, however, Wts displayed specific kinase activity towards Yki
